In patent US20130129739A1 (Bayer, published 2013):
Positions count from the first letter of the chain named.

T1: extracellular domain of human PRLR (monomeric, soluble) (human, UniProt P16471 25-234)
T1 construct: also called ECD-PRLR; ECD of PRLR
T1 sequence: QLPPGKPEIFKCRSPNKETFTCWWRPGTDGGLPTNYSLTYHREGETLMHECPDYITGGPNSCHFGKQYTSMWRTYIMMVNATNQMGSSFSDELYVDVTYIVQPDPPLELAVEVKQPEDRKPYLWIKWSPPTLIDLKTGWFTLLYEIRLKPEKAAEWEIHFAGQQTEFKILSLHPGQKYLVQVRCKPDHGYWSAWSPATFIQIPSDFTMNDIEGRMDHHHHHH

B1: 005-C04-41-2 (Fab, V domains shown)
VH: EVQLLESGGGLVQPGGSLRLSCAASGFTFSSYWNHWVRQAPGKGLEWVSDISRASSYTNYADSVKGRFTISRDNSKNTLYLQMNSLRAEDTAVYYCARGLDARRMDYWGQGTLVTVTS
VL: QSVLTQPPSASGTPGQRVTISCTGSSSNIGYGYVVHWYQQLPGTAPKLLIYRNNQRPSGVPDRFSGSKSGTSASLAISGLRSEDEADYYCAAWDDSLNGWLFGGGTKLTVLG
notes: Maturated 005-C04 variant; Fab in E. coli supernatant, flag-detected
B2: 005-C04-46-1 (Fab, V domains shown)
VH: B1 VH with I51M, A54L, S56P
VL: B1 VL with Q55V, P57Q
notes: as for B1
B3: 005-C04-18-10-2 (Fab, V domains shown)
VH: B1 VH with N34M, R53S
VL: B1 VL with Y31A, Q55V
notes: as for B1
B4: 005-C04-20-12-7 (Fab, V domains shown)
VH: B1 VH with N34M, R53S
VL: B1 VL with Y31A, P57Q
notes: as for B1
B5: 005-C04-58-33-1 (Fab, V domains shown)
VH: B1 VH with N34M, R53S, N59G
VL: B1 VL with Y31A
notes: as for B1
B6: 005-C04-45-1 (Fab, V domains shown)
VH: B1 VH
VL: B1 VL with Q55V
notes: as for B1
B7: 005-C04-55-32-0 (Fab, V domains shown)
VH: B1 VH with N34M, R53S, S56P
VL: B1 VL with Y31A
notes: as for B1
B8: 005-C04-10-3 (Fab, V domains shown)
VH: B1 VH with N34W, S52A, A54L, S56P
VL: B1 VL with Q55V, P57Q
notes: as for B1
B9: 005-C04-29-17-3 (Fab, V domains shown)
VH: B1 VH with N34M, R53S
VL: B1 VL with Y31A, N98F
notes: as for B1
B10: 005-C04-52-29-0 (Fab, V domains shown)
VH: B1 VH with N34M, R53W
VL: B1 VL with Y31A
notes: as for B1
B11: 005-C04-47-3 (Fab, V domains shown)
VH: B1 VH with N34W, S56P
VL: B1 VL
notes: as for B1
B12: 005-C04-42-1 (Fab, V domains shown)
VH: B1 VH with A54L
VL: B1 VL with P57Q
notes: as for B1
B13: 005-C04-52-29-7 (Fab, V domains shown)
VH: B1 VH with N34M
VL: B1 VL with Y31A
notes: as for B1
B14: 005-C04-29-17-0 (Fab, V domains shown)
VH: B1 VH with N34M, R53S
VL: B1 VL with Y31A, N98S
notes: as for B1
B15: 005-C04-37-2 (Fab, V domains shown)
VH: B1 VH with N34W, R53S, A54L, N59G
VL: B1 VL with Q55W
notes: as for B1
B16: 005-C04-36-0 (Fab, V domains shown)
VH: B1 VH with N34W, S52A, S56P
VL: B1 VL with Q55V
notes: as for B1
B17: 005-C04-20-2 (Fab, V domains shown)
VH: B1 VH with S52A, A54L
VL: B1 VL
notes: as for B1
B18: 005-C04-L2-1-2-3 (Fab, V domains shown)
VH: B1 VH with I51M, S52A, S56P, N59G
VL: B1 VL with Y31A, Q55W
notes: as for B1
B19: 005-C04-21-1 (Fab, V domains shown)
VH: B1 VH with S52A, A54L, S56P
VL: B1 VL with Q55V, P57Q
notes: as for B1
B20: 005-C04-19-2 (Fab, V domains shown)
VH: B1 VH with I51M, S52A, A54L, S56P
VL: B1 VL with P57Q
notes: as for B1
B21: 005-C04-53-31-7 (Fab, V domains shown)
VH: B1 VH with N34M, R53S, A54L
VL: B1 VL with Y31A
notes: as for B1
B22: 005-C04-44-25-1 (Fab, V domains shown)
VH: B1 VH with R53S
VL: B1 VL with Y31A
notes: as for B1
B23: 005-C04-9-2 (Fab, V domains shown)
VH: B1 VH with N34W, S52A
VL: B1 VL with Q55W, P57Q
notes: as for B1
B24: 005-C04-37-7 (Fab, V domains shown)
VH: B1 VH with N34W, R53S, A54L, N59G
VL: B1 VL with Q55W
notes: as for B1
B25: 005-C04-50-28-3 (Fab, V domains shown)
VH: B1 VH with N34M, I51R, R53S
VL: B1 VL with Y31A
notes: as for B1
B26: 005-C04-L2-1-4-5 (Fab, V domains shown)
VH: B1 VH with N34W
VL: B1 VL with Q55W
notes: as for B1
B27: 005-C04-4-3-7 (Fab, V domains shown)
VH: B1 VH with N34M, R53S
VL: B1 VL
notes: as for B1
B28: 005-C04-2-2 (Fab, V domains shown)
VH: B1 VH with I51M, S52A, A54L, S56P
VL: B1 VL with Q55V, P57Q
notes: as for B1
B29: 005-C04-18-10-4 (Fab, V domains shown)
VH: B1 VH with N34M, R53S
VL: B1 VL with Y31A, Q55W
notes: as for B1
B30: 005-C04-2-7 (Fab, V domains shown)
VH: B1 VH with N34W, S56P
VL: B1 VL with S25V, Y31A
notes: as for B1
B31: 005-C04-21-2 (Fab, V domains shown)
VH: B1 VH with I51M, S52A, S56P
VL: B1 VL with Q55V
notes: as for B1
B32: 005-C04-51-29-0 (Fab, V domains shown)
VH: B1 VH with N34M, S52A, R53S
VL: B1 VL with Y31A
notes: as for B1
B33: 005-C04-25-6 (Fab, V domains shown)
VH: B1 VH with N34W, I51M, A54L
VL: B1 VL with Q55V, P57Q
notes: as for B1
B34: 005-C04-8-6 (Fab, V domains shown)
VH: B1 VH with N34W, I51M
VL: B1 VL with S25Q, Y31A
notes: as for B1
B35: 005-C04-11-5 (Fab, V domains shown)
VH: B1 VH with N34W, A54L, S56P
VL: B1 VL with Q55V
notes: as for B1
B36: 005-C04-29-0 (Fab, V domains shown)
VH: B1 VH with I51M
VL: B1 VL with P57Q
notes: as for B1
B37: 005-C04-L2-1-11-0 (Fab, V domains shown)
VH: B1 VH with N34W, I51M, S52A, A54L
VL: B1 VL with Y31A, Q55V, P57Q
notes: as for B1
B38: 005-C04-L2-1-3-2 (Fab, V domains shown)
VH: B1 VH with I51M, S52A, A54L
VL: B1 VL with Y31A, Q55V, P57Q
notes: as for B1
B39: 005-C04-29-17-2 (Fab, V domains shown)
VH: B1 VH with N34M, R53S
VL: B1 VL with Y31A, N98G
notes: as for B1
B40: 005-C04-29-17-7 (Fab, V domains shown)
VH: B1 VH with N34M, R53S
VL: B1 VL with Y31A, N98L
notes: as for B1
B41: 005-C04-40-4 (Fab, V domains shown)
VH: B1 VH with I51M, S52A, A54L
VL: B1 VL with Q55V, P57Q
notes: as for B1

Each binder was assayed against T1, extracellular domain of human PRLR … (assay: ELISA: plate coated with human PRLR extracellular domain, Fab-containing E. coli supernatant, anti-flag-HRP, Amplex Red).
Description: 96 well microtiter plates were coated with 1 μg per milliliter of human PRLR. Plates were incubated over night at 4° C. After blocking with PBS buffer containing 3% bovine serum albumin, normalized E. coli-derived supernatants containing the Fab variants were added. Detection of formed complexes occurred via the addition of an anti-flag antibody (Sigma, A8592) labeled with horseradish peroxidase.

Binding result, binds:
B1, B2, B3, B4, B5, B6, B7, B8, B9, B10, B11, B12, B13, B14, B15, B16, B17, B18, B19, B20, B21, B22, B23, B24, B25, B26, B27, B28, B29, B30, B31, B32, B33, B34, B35, B36, B37, B38, B39, B40, B41
